Data as given in article PMC8360651.

Tested on: VHH 9E (humanized single-domain antibody) (synthetic humanized VHH library NaLi-H1)
Assay: ELISA
Settings: ELISA: biotinylated DNA on avidin plates, 2 h binding, PBS/PBST washes (competition mix at RT). EMSA: PBS, 10% glycerol, RT 2 h, 8% native PAGE in TAE at 4 C. …

AAAATACATTTATATATATCCTAGTCCGACCGCAGGATCCTATAA / TTATAGGATCCTGCGGTCGGACTAGGATATATATAAATGTA [41-mer dsDNA target (BIOTIN-R-CELL + O3-CELL)]
binding signal (pH 5): 82%
K half (serial dilutions of VHH on immobilized dsDNA, relative binding affinity): 200 nM
